Source: US20100144630

Legend:
[1] = system: alpha-1 antitrypsin (native, not heat-inactivated)
[2] = system: heat-inactivated alpha-1 antitrypsin

Q: Which “elastase activity: hydrolysis of N-Succinyl-Ala-Ala-Ala-p-nitroanalide, absorbance at 410 nm” value [1] does the source give for Elastase here?
A: Combining native (NOT heat-inactivated) AAT ablated elastase processing of the N-Succinyl-Ala-Ala-Ala-p-nitroanalide substrate and blocked the increase in A410 nm

Q: And the “elastase activity: hydrolysis of N-Succinyl-Ala-Ala-Ala-p-nitroanalide, absorbance at 410 nm” value [2]?
A: combining HIAAT with elastase produced a curve similar to that of elastase alone. This demonstrated that HIAAT possessed no detectable elastase neutralizing activity
